# How the values were obtained:
# [1] = tested on: TyrR (Escherichia coli); assay: cell_activity; settings: beta-galactosidase reporter, M9 + 2 mM L-tyrosine, 37 C; 29.1 without tyrosine; indirect evidence of binding
# [2] = molecular target: T1, TyrR (tyrosine repressor) (Erwinia herbicola) (UniProt Q9ZIB7); assay: cell_activity; settings: beta-galactosidase reporter, M9 + 2 mM L-tyrosine, 37 C; 35.5 without tyrosine; indirect evidence of binding
# T1 sequence: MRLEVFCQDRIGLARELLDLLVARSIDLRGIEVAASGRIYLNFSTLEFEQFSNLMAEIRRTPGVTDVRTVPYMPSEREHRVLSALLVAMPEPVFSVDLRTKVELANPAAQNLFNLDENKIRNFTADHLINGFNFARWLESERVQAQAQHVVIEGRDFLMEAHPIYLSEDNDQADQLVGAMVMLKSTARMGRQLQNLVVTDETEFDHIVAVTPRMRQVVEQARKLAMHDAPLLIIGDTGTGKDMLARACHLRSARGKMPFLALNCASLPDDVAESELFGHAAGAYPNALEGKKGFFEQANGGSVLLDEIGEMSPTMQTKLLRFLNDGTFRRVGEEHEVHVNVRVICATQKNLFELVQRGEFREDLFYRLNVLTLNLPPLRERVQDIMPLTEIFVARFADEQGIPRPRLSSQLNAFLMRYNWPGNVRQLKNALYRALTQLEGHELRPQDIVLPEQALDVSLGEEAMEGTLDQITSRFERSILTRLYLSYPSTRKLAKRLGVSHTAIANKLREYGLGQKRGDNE
substance,measurement,setting,value
"tpl promoter/enhancer region (about 480 bp, tpl'-'lac fusion)",activity,[1],324 Miller units
same,activity,[2],656 Miller units

# — patent US6146878
